The values that follow come from paper PMC4652220, “Imaging and energetics of single SSB-ssDNA molecules reveal intramolecular condensation and insight into RecOR function” (eLife, 2015).

In this assay the target is T1, RecO (UniProt P0A7H3 1-242).
T1 construct: RecO recombination mediator protein; source: purified as previously described (Kantake et al., 2002)
T1 sequence (looked up): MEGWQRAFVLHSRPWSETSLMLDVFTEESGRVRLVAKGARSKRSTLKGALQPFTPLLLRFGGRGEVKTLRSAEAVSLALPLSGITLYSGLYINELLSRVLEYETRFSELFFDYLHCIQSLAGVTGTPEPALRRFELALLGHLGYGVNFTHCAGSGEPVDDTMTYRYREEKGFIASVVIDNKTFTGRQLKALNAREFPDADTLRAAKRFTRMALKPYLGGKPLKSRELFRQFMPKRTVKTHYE
Briefly: magnetic tweezers force spectroscopy; single tethered ssDNA; added in turn: 100 mM NaOAc and 1 mM Mg(OAc)2, 200 nM SSB, 100 nM RecO, 1 μM RecR; 20 mM TrisOAc pH 8.0, 50 mM DTT; 25°C. As to conditions: both partners purified.

B1: RecR (natural protein, UniProt P0A7H6 1-201, looked up)
chain: MQTSPLLTQLMEALRCLPGVGPKSAQRMAFTLLQRDRSGGMRLAQALTRAMSEIGHCADCRTFTEQEVCNICSNPRRQENGQICVVESPADIYAIEQTGQFSGRYFVLMGHLSPLDGIGPDDIGLDRLEQRLAEEKITEVILATNPTVEGEATANYIAELCAQYDVEASRIAHGVPVGGELEMVDGTTLSHSLAGRHKIRF
notes: RecR recombination protein; It cites other work for RecR dimers/tetramers; source: purified as previously described (Kantake et al., 2002)
B1: the binding result is recorded as “binds”.
